In experiment [1] the target is T1, kinesin-binding protein (human, UniProt Q96EK5 1-621).
T1 construct: The 6xHis tag is thrombin-cleavable; also called KBP; KBP-full; source: E. coli Rosetta2, purified (IMAC, SEC)
T1 sequence (looked up): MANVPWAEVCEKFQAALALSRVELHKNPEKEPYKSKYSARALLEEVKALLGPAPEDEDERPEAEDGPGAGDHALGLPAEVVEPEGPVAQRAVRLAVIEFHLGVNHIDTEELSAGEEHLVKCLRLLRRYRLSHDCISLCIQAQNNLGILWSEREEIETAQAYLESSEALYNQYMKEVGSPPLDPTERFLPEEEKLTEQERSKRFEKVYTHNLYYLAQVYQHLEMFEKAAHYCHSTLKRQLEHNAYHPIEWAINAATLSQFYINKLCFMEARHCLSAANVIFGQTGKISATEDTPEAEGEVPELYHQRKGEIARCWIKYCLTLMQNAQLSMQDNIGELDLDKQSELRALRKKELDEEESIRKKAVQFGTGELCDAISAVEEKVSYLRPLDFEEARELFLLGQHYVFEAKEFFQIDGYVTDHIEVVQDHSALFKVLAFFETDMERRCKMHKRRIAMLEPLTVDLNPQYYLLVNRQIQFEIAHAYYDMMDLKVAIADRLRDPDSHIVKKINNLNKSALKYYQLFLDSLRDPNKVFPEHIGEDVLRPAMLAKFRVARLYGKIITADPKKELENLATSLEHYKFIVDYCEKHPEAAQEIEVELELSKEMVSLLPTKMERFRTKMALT
Briefly: cryo-EM structure; rigid KBP-full–KIF15_MD6S subset of particles from GO-coated holey gold grids; 6.9 Å reconstruction. Particulars: both partners purified.

The target of experiment [2] is T1, kinesin-binding protein. In words: pull-down; complex purified via IMAC using the 6xHis tag on the kinesin construct after incubation with a tenfold excess of KBP; SDS-PAGE of the purified complex. The note with it: both partners purified.

B1: cysteine-light human KIF15 motor domain and neck linker construct (domain or fragment, UniProt Q9NS87 1-375, looked up)
chain: MAPGSKTELRSVTNGQSNQPSNEGDAIKVFVRIRPPAERSGSADGEQNLSLSVLSSTSLRLHSNPEPKTFTFDHVADVDTTQESVFATVAKSIVESCMSGYNGTIFAYGQTGSGKTFTMMGPSESDNFSHNLRGVIPRSFEYLFSLIDREKEKAGAGKSFLSKCSFIEIYNEQIYDLLDSASAGLYLREHIKKGVFVVGAVEQVVTSAAEAYQVLSGGWRNRRVASTSMNRESSRSHAVFTITIESMEKCNEIVNIRTSLLNLVDLAGSERQKDTHAEGMRLKEAGNINRSLSSLGQVITALVDVGNGKQRHVSYRDSKLTFLLRDSLGGNAKTAIIANVHPGSRSFGETLSTLNFAQRAKLIKNKAVVNEDTQC
notes: kinesin-12 KIF15, human, motor domain and neck linker, residues 1-375, six of eight cysteines mutated to serine and two cysteines introduced; also called KIF15_MD6S; source: pET-21a vector, expressed and purified as described previously (Rosenfeld et al., 2005); not shown: His6, C-terminal, kept
For B1, the binding result in the experiment with kinesin-binding protein [1] is given as “binds”.

B2: human KIF1A motor domain and neck linker construct (domain or fragment, UniProt Q12756 1-362, looked up)
chain: MAGASVKVAVRVRPFNSREMSRDSKCIIQMSGSTTTIVNPKQPKETPKSFSFDYSYWSHTSPEDINYASQKQVYRDIGEEMLQHAFEGYNVCIFAYGQTGAGKSYTMMGKQEKDQQGIIPQLCEDLFSRINDTTNDNMSYSVEVSYMEIYCERVRDLLNPKNKGNLRVREHPLLGPYVEDLSKLAVTSYNDIQDLMDSGNKARTVAATNMNETSSRSHAVFNIIFTQKRHDAETNITTEKVSKISLVDLAGSERADSTGAKGTRLKEGANINKSLTTLGKVISALAEMDSGPNKNKKKKKTDFIPYRDSVLTWLLRENLGGNSRTAMVAALSPADINYDETLSTLRYADRAKQIRCNAVINE
notes: kinesin-3 KIF1A, human, motor domain and neck linker, residues 1-362; The HaloTag is TEV protease-cleavable; the printed size of the motor domain (about 40 kDa); source: E. coli BL21-Gold (DE3), purified (IMAC, SEC); not shown: His6, C-terminal, kept
Turning to B2, the binding result with kinesin-binding protein [2] is “binds”.
